Legend:
Assay in all cases: cell-based or functional assay
[1] = biological target: MMP9 (human, UniProt P14780 107-707, limits assumed)
[2] = biological target: MMP8 (human, UniProt P22894 101-467, limits assumed)
[3] = biological target: T1, ADAMTS5 (human, UniProt Q9UNA0 262-622, limits assumed)
T1 sequence (looked up): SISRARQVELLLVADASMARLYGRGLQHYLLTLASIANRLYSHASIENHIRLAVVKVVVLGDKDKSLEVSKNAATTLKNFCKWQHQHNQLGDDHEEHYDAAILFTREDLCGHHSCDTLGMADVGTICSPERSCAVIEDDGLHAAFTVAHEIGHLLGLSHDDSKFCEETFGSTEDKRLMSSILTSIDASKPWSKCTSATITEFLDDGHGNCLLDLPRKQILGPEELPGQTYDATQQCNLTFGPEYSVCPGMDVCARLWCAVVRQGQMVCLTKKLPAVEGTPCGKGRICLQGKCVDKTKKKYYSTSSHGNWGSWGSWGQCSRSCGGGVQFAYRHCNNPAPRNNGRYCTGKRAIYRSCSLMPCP

[4] = biological target: T2, MMP1 (human, UniProt P03956 100-469, limits assumed)
T2 sequence (looked up): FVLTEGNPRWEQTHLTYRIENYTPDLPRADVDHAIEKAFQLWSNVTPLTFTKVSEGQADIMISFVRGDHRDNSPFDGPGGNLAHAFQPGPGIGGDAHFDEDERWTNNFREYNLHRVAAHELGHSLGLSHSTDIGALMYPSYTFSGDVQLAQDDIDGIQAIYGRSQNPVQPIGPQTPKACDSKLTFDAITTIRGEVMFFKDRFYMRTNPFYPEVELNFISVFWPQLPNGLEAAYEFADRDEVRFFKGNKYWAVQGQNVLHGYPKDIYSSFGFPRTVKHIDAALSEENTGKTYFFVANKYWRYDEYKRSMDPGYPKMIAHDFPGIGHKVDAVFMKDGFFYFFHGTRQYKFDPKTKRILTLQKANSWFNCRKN

[5] = biological target: MMP13 (human, UniProt P45452 104-471, limits assumed)
[6] = biological target: T3, MMP2 (human, UniProt P08253 110-660, limits assumed)
T3 sequence (looked up): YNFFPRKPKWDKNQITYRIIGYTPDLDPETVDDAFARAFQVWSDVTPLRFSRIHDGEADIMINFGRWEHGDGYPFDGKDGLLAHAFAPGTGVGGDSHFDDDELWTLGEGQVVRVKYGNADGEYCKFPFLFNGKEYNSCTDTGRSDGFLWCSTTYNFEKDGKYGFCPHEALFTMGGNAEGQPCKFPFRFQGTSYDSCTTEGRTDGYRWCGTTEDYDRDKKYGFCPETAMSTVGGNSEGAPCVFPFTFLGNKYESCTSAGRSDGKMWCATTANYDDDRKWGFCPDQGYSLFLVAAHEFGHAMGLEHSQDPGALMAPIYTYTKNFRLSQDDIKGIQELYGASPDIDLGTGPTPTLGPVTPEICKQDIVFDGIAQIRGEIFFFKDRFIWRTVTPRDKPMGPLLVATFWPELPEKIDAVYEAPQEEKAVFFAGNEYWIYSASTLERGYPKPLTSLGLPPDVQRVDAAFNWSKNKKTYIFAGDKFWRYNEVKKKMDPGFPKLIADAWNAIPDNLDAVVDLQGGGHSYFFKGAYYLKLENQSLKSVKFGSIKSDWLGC

[7] = biological target: T4, ADAMTS4 (human, UniProt O75173 213-685, limits assumed)
T4 sequence (looked up): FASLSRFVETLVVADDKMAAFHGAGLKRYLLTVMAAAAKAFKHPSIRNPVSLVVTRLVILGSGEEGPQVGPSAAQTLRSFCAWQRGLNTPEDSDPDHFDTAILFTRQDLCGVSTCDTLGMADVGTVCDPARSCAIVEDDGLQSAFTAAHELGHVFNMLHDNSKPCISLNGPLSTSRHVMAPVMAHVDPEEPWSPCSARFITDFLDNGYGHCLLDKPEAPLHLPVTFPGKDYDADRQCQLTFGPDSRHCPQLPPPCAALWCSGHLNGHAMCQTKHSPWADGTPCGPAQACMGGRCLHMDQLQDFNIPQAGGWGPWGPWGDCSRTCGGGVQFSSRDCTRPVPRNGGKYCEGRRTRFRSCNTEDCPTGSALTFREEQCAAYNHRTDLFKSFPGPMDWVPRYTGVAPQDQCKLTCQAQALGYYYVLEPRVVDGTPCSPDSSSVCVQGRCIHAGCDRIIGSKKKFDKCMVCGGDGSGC

[8] = biological target: MMP3 (human, UniProt P08254 100-477, limits assumed)
Chain of MMP3 (P08254 100-477 limits assumed): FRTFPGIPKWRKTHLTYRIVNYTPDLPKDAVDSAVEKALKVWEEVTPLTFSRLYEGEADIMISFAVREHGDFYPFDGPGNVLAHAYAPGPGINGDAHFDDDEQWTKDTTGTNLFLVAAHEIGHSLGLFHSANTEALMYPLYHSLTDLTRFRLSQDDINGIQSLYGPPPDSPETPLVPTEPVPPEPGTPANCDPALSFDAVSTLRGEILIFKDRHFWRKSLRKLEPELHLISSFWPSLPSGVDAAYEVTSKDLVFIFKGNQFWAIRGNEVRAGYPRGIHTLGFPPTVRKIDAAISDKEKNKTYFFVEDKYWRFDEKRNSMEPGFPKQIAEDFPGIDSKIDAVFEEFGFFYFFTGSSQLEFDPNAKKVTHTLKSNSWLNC

Chain of MMP8 (P22894 101-467 limits assumed): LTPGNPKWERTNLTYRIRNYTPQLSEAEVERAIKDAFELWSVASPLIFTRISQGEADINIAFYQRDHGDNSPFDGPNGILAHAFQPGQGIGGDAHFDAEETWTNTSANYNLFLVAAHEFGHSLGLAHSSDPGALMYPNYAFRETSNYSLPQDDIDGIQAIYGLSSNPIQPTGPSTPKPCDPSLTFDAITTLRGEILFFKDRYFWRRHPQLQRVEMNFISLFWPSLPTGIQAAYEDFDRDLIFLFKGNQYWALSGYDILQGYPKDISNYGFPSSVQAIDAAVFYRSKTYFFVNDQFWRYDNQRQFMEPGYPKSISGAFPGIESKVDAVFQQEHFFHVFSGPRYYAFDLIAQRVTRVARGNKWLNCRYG
Chain of MMP9 (P14780 107-707 limits assumed): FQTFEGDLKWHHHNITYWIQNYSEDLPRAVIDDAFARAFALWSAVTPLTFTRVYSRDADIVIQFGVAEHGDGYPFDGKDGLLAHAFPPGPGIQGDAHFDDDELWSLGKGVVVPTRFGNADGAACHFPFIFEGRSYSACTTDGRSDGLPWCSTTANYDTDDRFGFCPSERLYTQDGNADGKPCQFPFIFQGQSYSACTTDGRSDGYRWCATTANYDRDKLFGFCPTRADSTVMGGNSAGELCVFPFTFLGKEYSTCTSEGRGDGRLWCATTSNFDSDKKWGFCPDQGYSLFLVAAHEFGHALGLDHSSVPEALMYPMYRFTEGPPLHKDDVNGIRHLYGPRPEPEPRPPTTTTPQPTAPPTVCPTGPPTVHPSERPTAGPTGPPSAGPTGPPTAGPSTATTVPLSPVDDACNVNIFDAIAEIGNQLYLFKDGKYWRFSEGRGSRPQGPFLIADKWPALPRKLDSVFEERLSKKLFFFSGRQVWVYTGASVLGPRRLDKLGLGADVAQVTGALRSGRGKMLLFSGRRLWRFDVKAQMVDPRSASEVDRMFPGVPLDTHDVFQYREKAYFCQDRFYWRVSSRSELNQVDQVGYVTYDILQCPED

B1: Variant A2M, bait region SEQ ID NO 87 (other)
chain: SVSGKPQYMVLVPSLLHTETTEKGCVLLSYLNETVTVSASLESVRGNRSLFTDLEAENDVLHCVAFAVPKSSSNEEVMFLTVQVKGPTQEFKKRTTVMVKNEDSLVFVQTDKSIYKPGQTVKFRVVSMDENFHPLNELIPLVYIQDPKGNRIAQWQSFQLEGGLKQFSFPLSSEPFQGSYKVVVQKKSGGRTEHPFTVEEFVLPKFEVQVTVPKIITILEEEMNVSVCGLYTYGKPVPGHVTVSICRKYSDASDCHGEDSQAFCEKFSGQLNSHGCFYQQVKTKVFQLKRKEYEMKLHTEAQIQEEGTVVELTGRQSSEITRTITKLSFVKVDSHFRQGIPFFGQVRLVDGKGVPIPNKVIFIRGNEANYYSNATTDEHGLVQFSINTTNVMGTSLTVRVNYKDRSPCYGYQWVSEEHEEAHHTAYLVFSPSKSFVHLEPMSHELPCGHTQTVQAHYILNGGTLLGLKKLSFYYLIMAKGGIVRTGTHGLLVKQEDMKGHFSISIPVKSDIAPVARLLIYAVLPTGDVIGDSAKYDVENCLANKVDLSFSPSQSLPASHAHLRVTAAPQSVCALRAVDQSVLLMKPDAELSASSVYNLLPEKDLTGFPGPLNDQDDEDCINRHNVYINGITYTPVSSTNEKDMYSFLEDMGLKAFTNSKIRKPKMCPQLEQYEMHGPEGLRVGKEEEGLGSSELEGRGSTAQEAGEGKLRKYFPETWIWDLVVVNSAGVAEVGVTVPDTITEWKAGAFCLSEDAGLGISSTASLRAFQPFFVELTMPYSVIRGEAFTLKATVLNYLPKCIRVSVQLEASPAFLAVPVEKEQAPHCICANGRQTVSWAVTPKSLGNVNFTVSAEALESQELCGTEVPSVPEHGRKDTVIKPLLVEPEGLEKETTFNSLLCPSGGEVSEELSLKLPPNVVEESARASVSVLGDILGSAMQNTQNLLQMPYGCGEQNMVLFAPNIYVLDYLNETQQLTPEIKSKAIGYLNTGYQRQLNYKHYDGSYSTFGERYGRNQGNTWLTAFVLKTFAQARAYIFIDEAHITQALIWLSQRQKDNGCFRSSGSLLNNAIKGGVEDEVTLSAYITIALLEIPLTVTHPVVRNALFCLESAWKTAQEGDHGSHVYTKALLAYAFALAGNQDKRKEVLKSLNEEAVKKDNSVHWERPQKPKAPVGHFYEPQAPSAEVEMTSYVLLAYLTAQPAPTSEDLTSATNIVKWITKQQNAQGGFSSTQDTVVALHALSKYGAATFTRTGKAAQVTIQSSGTFSSKFQVDNNNRLLLQQVSLPELPGEYSMKVTGEGCVYLQTSLKYNILPEKEEFPFALGVQTLPQTCDEPKAHTSFQISLSVSYTGSRSASNMAIVDVKMVSGFIPLKPTVKMLERSNHVSRTEVSSNHVLIYLDKVSNQTLSLFFTVLQDVPVRDLKPAIVKVYDYYETDEFAIAEYNAPCSKDLGNADYKDDDDKGASHHHHHH
- Protease Inhibition (% of WT) [1]: 70 % of WT
- Protease Inhibition (% of WT) [2]: 40 % of WT
- Protease Inhibition (% of WT) [3]: 170 % of WT
- Protease Inhibition (% of WT) [4]: 150 % of WT
- Protease Inhibition (% of WT) [5]: 150 % of WT
- Protease Inhibition (% of WT) [6]: 100 % of WT
- Protease Inhibition (% of WT) [7]: 160 % of WT
- Protease Inhibition (% of WT) [8]: 40 % of WT
